Data set [1] deals with Pen1-XBIR3 (Penetratin1 disulfide-linked to the BIR3 domain from XIAP).
The test system of data set [2] is caspase-cleaved tau (caspase-6 substrate). The data set is described as follows: Intranasal Pen1-C6DN prior to 1 hr tMCAo in mice; western blot for caspase-cleaved tau (anti-TauC3). Format: in vivo, mouse. As to conditions: intranasal 1 hr prior to 1 hr tMCAo, 24 hpr. From the text:
To determine if a direct blockade of caspase-6 would provide protection from ischemia, a Pen1-linked caspase-6 domininat negative (Pen1-C6DN) construct was utilized. Pen1-C6DN was delivered by intransasal bolus to mice 1 hr prior to tMCAo and mice were then subjected to 1 hrMCAo followed by reperfusion. Animals were sacrificed at 24 hpr and core and penumbra regions of brain prepared for Western blotting. As depicted in FIG. 7, protein lysate from the core and penumbra regions of the stroke infarct (24 hpr) was isolated. Ipsilateral (stroked) hemispheres contained abundant caspase-cleaved tau when only treated with vehicle.
Intranasal Pen1-C6DN Prevents Cleavage of Caspase-6 Substrates. Caspase-6 catalytic dominant negative (C6DN; C285A) was isolated and purified as described previously. Denault, J. B. and G. S. Salvesen, Expression, purification, and characterization of caspases. Curr Protoc Protein Sci, 2003. Chapter 21: p. Unit 21 13. Pen1 (Q-Biogene) was mixed at an equimolar ratio with purified C6DN and incubated overnight at 37° C. to generate disulfide-linked Pen1-C6DN. Linkage was assessed by 20% SDS-PAGE and Western blotting with anti-His and anti-Caspase-6 antibodies.
Male C57BL/6 mice (2-3 months old; ≥25 g) were anesthetized using isoflurane (2%) delivered via an anesthesia mask. […]
Background: Immunoblotting shows a protein as a band on a membrane.

The target in data set [3] is T1, Pen1-C6DN (Penetratin1 disulfide-linked to caspase-6 catalytic dominant negative, C285A).
T1 chain 1: RQIKIWFQNRRMKWKK
T1 chain 2: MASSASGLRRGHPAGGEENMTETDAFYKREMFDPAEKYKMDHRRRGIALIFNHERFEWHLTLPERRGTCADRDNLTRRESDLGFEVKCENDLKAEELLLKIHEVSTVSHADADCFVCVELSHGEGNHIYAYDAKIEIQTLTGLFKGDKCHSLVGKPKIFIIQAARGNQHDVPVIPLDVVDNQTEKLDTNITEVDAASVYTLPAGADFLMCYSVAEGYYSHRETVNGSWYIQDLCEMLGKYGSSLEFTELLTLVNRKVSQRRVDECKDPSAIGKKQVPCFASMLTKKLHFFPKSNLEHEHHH

The text below walks through data of patent US20200164026A1, “Intranasal Delivery of Cell Permeant Therapeutics” (The Trustees of Columbia University in the City of New York, priority 2010, published 2020).

Pen1-XBIR3 (Penetratin1 disulfide-linked to the BIR3 domain from XIAP), sequence (chain, as listed by the source): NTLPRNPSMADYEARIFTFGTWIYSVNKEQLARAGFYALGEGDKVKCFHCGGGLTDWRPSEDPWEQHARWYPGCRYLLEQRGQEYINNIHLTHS

Regarding “caspase-9 (rat, endogenous in brain or hippocampal neurons)”, in data set [1], the “C1-C6 processes (count of cleaved caspase-6 positive processes), intranasal delivery, 12 hpr” value is reported as “Vehicle-12 hpr: 144.0±28.50, n=3 vs. Pen1-XBIR3-12 hpr: 102.7±23.15, n=3; p=0.3233”; the “C1-C6 processes (count of cleaved caspase-6 positive processes), intranasal delivery, 24 hpr” value is recorded as “Vehicle-24 hpr: 109.7±12.73, n=3 vs. Pen1-XBIR3-24 hpr: 57.33±10.04, n=3; p=0.032”; the “immunostaining for caspase-9 and cleaved caspase-6 at 24 hpr after convection enhanced delivery to rat striatum” value is “Pent-XBIR3 inhibited appearance of c1-C6 and caspase-9 in cell bodies and processes”; the “immunostaining for cleaved caspase-6 and caspase-9 at 24 hpr (FIG. 3D)” value is “The caspase-9 specific inhibitor, Pen1-XBIR3, blocks the increase in caspase-9 and the induction of c1-C6 observed at 24 hpr”.

B1: Pen1-C6DN: Caspase-6 catalytic dominant negative (C6DN; C285A) disulfide-linked to Penetratin1 (SEQ ID NO: 11) (conjugate)
peptide: RQIKIWFQNRRMKWKK
chain: MASSASGLRRGHPAGGEENMTETDAFYKREMFDPAEKYKMDHRRRGIALIFNHERFEWHLTLPERRGTCADRDNLTRRESDLGFEVKCENDLKAEELLLKIHEVSTVSHADADCFVCVELSHGEGNHIYAYDAKIEIQTLTGLFKGDKCHSLVGKPKIFIIQAARGNQHDVPVIPLDVVDNQTEKLDTNITEVDAASVYTLPAGADFLMCYSVAEGYYSHRETVNGSWYIQDLCEMLGKYGSSLEFTELLTLVNRKVSQRRVDECKDPSAIGKKQVPCFASMLTKKLHFFPKSNLEHEHHH
For the molecule B1, in data set [2], the “caspase-cleaved tau in core and penumbra lysate” value is listed as “reduced cleavage of caspase-cleaved tau”.

B2: caspase-6 (mouse, endogenous in brain) (protein)
chain: MTETDGFYKSREVFDPAEQYKMDHKRRGVALIFNHERFFWHLTLPERRGTNADRDNLTRRFSDLGFEVKCFNDLRAEELLLKIHEVSTSSHIDADCFICVFLSHGEGNHVYAYDAKIEIQTLTGLFKGDKCQSLVGKPKIFIIQACRGSQHDVPVVPLDMVDHQTDKLDNVTQVDAASVYTLPAGADFLMCYSVAEGYYSHRETVNGSWYIQDLCEMLARYGSSLEFTELLTLVNRKVSQRRVDFCKDPDAIGKKQVPCFASMLTKKLHFCPKPSK
Consider B2, for which the “caspase-cleaved tau in mouse brain lysate at 24 hpr (western blot, anti-TauC3)” value in data set [3] is “Pen1-C6DN reduced cleavage of caspase-cleaved tau”.
